Results from US20230250154A1 (CYTONICS, published 2023).
Values belong to the binder of their own block, whether it stands above or below them.

Legend:
Assay in all cases: cell-based or functional assay
[1] = target: Elastase
[2] = target: T1, Cathepsin G (UniProt P08311 21-244)
T1 sequence (looked up): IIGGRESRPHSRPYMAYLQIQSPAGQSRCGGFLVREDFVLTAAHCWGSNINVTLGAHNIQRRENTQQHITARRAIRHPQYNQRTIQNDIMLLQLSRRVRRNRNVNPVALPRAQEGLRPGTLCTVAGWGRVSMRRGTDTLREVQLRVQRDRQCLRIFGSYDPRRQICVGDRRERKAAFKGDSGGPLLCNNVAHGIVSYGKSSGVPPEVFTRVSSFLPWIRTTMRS

[3] = target: MMP8 (human, UniProt P22894 101-467, limits assumed)
Sequence of MMP8 (P22894 101-467 limits assumed): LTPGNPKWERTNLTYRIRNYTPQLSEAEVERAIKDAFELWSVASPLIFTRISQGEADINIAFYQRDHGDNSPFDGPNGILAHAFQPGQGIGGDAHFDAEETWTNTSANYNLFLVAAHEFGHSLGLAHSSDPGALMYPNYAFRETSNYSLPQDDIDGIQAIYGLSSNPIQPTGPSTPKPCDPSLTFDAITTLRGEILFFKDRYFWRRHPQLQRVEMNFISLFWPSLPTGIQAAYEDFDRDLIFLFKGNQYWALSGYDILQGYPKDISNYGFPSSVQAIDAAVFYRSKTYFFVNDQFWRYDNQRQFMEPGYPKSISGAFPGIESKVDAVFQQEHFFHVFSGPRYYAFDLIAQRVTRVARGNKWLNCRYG

[4] = target: T2, MMP1 (human, UniProt P03956 100-469, limits assumed)
T2 sequence (looked up): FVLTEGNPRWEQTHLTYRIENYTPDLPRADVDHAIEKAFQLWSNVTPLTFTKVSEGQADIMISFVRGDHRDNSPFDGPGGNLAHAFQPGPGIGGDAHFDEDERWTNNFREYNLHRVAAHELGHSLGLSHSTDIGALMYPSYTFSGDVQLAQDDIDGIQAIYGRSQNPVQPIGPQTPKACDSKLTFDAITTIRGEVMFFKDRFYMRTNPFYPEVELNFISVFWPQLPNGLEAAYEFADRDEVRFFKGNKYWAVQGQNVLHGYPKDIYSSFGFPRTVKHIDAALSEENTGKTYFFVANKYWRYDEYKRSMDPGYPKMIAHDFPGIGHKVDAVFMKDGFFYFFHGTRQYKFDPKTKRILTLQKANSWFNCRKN

[5] = target: T3, MMP2 (human, UniProt P08253 110-660, limits assumed)
T3 sequence (looked up): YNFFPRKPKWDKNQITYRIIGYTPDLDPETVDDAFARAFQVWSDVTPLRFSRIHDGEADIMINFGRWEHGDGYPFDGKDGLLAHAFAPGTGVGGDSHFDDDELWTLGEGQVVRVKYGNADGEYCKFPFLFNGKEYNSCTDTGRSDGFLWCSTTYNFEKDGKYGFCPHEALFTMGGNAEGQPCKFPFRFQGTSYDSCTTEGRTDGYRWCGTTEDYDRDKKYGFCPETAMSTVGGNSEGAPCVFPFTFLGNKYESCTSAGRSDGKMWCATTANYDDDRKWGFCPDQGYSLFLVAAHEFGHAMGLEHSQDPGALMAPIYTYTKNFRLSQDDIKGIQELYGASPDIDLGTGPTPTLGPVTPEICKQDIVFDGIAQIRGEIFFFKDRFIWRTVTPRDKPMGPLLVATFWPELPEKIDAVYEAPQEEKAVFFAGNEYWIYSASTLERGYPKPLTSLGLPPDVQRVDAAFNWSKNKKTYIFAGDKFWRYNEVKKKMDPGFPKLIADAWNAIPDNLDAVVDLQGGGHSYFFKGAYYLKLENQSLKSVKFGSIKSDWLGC

Protease Inhibition (% of WT) [1]: 300 % of WT
Protease Inhibition (% of WT) [2]: 250 % of WT
Protease Inhibition (% of WT) [3]: 200 % of WT
Protease Inhibition (% of WT) [4]: 200 % of WT
B1: Variant A2M, bait region SEQ ID NO 134 (other)
chain: SVSGKPQYMVLVPSLLHTETTEKGCVLLSYLNETVTVSASLESVRGNRSLFTDLEAENDVLHCVAFAVPKSSSNEEVMFLTVQVKGPTQEFKKRTTVMVKNEDSLVFVQTDKSIYKPGQTVKFRVVSMDENFHPLNELIPLVYIQDPKGNRIAQWQSFQLEGGLKQFSFPLSSEPFQGSYKVVVQKKSGGRTEHPFTVEEFVLPKFEVQVTVPKIITILEEEMNVSVCGLYTYGKPVPGHVTVSICRKYSDASDCHGEDSQAFCEKFSGQLNSHGCFYQQVKTKVFQLKRKEYEMKLHTEAQIQEEGTVVELTGRQSSEITRTITKLSFVKVDSHFRQGIPFFGQVRLVDGKGVPIPNKVIFIRGNEANYYSNATTDEHGLVQFSINTTNVMGTSLTVRVNYKDRSPCYGYQWVSEEHEEAHHTAYLVFSPSKSFVHLEPMSHELPCGHTQTVQAHYILNGGTLLGLKKLSFYYLIMAKGGIVRTGTHGLLVKQEDMKGHFSISIPVKSDIAPVARLLIYAVLPTGDVIGDSAKYDVENCLANKVDLSFSPSQSLPASHAHLRVTAAPQSVCALRAVDQSVLLMKPDAELSASSVYNLLPEKDLTGFPGPLNDQDDEDCINRHNVYINGITYTPVSSTNEKDMYSFLEDMGLKAFTNSKIRKPKMCPQLEQYEMHGPSELEGRGSIPENFFGVKEEEGLGSSEDLVVQIVEEPHTKLRKYFPETWIWDLVVVNSAGVAEVGVTVPDTITEWKAGAFCLSEDAGLGISSTASLRAFQPFFVELTMPYSVIRGEAFTLKATVLNYLPKCIRVSVQLEASPAFLAVPVEKEQAPHCICANGRQTVSWAVTPKSLGNVNFTVSAEALESQELCGTEVPSVPEHGRKDTVIKPLLVEPEGLEKETTFNSLLCPSGGEVSEELSLKLPPNVVEESARASVSVLGDILGSAMQNTQNLLQMPYGCGEQNMVLFAPNIYVLDYLNETQQLTPEIKSKAIGYLNTGYQRQLNYKHYDGSYSTFGERYGRNQGNTWLTAFVLKTFAQARAYIFIDEAHITQALIWLSQRQKDNGCFRSSGSLLNNAIKGGVEDEVTLSAYITIALLEIPLTVTHPVVRNALFCLESAWKTAQEGDHGSHVYTKALLAYAFALAGNQDKRKEVLKSLNEEAVKKDNSVHWERPQKPKAPVGHFYEPQAPSAEVEMTSYVLLAYLTAQPAPTSEDLTSATNIVKWITKQQNAQGGFSSTQDTVVALHALSKYGAATFTRTGKAAQVTIQSSGTFSSKFQVDNNNRLLLQQVSLPELPGEYSMKVTGEGCVYLQTSLKYNILPEKEEFPFALGVQTLPQTCDEPKAHTSFQISLSVSYTGSRSASNMAIVDVKMVSGFIPLKPTVKMLERSNHVSRTEVSSNHVLIYLDKVSNQTLSLFFTVLQDVPVRDLKPAIVKVYDYYETDEFAIAEYNAPCSKDLGNADYKDDDDKGASHHHHHH

Protease Inhibition (% of WT) [1]: 75 % of WT
Protease Inhibition (% of WT) [4]: 200 % of WT
Protease Inhibition (% of WT) [5]: 20 % of WT
B2: Variant A2M, bait region SEQ ID NO 129 (other)
chain: SVSGKPQYMVLVPSLLHTETTEKGCVLLSYLNETVTVSASLESVRGNRSLFTDLEAENDVLHCVAFAVPKSSSNEEVMFLTVQVKGPTQEFKKRTTVMVKNEDSLVFVQTDKSIYKPGQTVKFRVVSMDENFHPLNELIPLVYIQDPKGNRIAQWQSFQLEGGLKQFSFPLSSEPFQGSYKVVVQKKSGGRTEHPFTVEEFVLPKFEVQVTVPKIITILEEEMNVSVCGLYTYGKPVPGHVTVSICRKYSDASDCHGEDSQAFCEKFSGQLNSHGCFYQQVKTKVFQLKRKEYEMKLHTEAQIQEEGTVVELTGRQSSEITRTITKLSFVKVDSHFRQGIPFFGQVRLVDGKGVPIPNKVIFIRGNEANYYSNATTDEHGLVQFSINTTNVMGTSLTVRVNYKDRSPCYGYQWVSEEHEEAHHTAYLVFSPSKSFVHLEPMSHELPCGHTQTVQAHYILNGGTLLGLKKLSFYYLIMAKGGIVRTGTHGLLVKQEDMKGHFSISIPVKSDIAPVARLLIYAVLPTGDVIGDSAKYDVENCLANKVDLSFSPSQSLPASHAHLRVTAAPQSVCALRAVDQSVLLMKPDAELSASSVYNLLPEKDLTGFPGPLNDQDDEDCINRHNVYINGITYTPVSSTNEKDMYSFLEDMGLKAFTNSKIRKPKMCPQLEQYEMHGPEAIPMSIPTEGEGEGEGIPENFFGVSEDLVVQIVEEPHTKLRKYFPETWIWDLVVVNSAGVAEVGVTVPDTITEWKAGAFCLSEDAGLGISSTASLRAFQPFFVELTMPYSVIRGEAFTLKATVLNYLPKCIRVSVQLEASPAFLAVPVEKEQAPHCICANGRQTVSWAVTPKSLGNVNFTVSAEALESQELCGTEVPSVPEHGRKDTVIKPLLVEPEGLEKETTFNSLLCPSGGEVSEELSLKLPPNVVEESARASVSVLGDILGSAMQNTQNLLQMPYGCGEQNMVLFAPNIYVLDYLNETQQLTPEIKSKAIGYLNTGYQRQLNYKHYDGSYSTFGERYGRNQGNTWLTAFVLKTFAQARAYIFIDEAHITQALIWLSQRQKDNGCFRSSGSLLNNAIKGGVEDEVTLSAYITIALLEIPLTVTHPVVRNALFCLESAWKTAQEGDHGSHVYTKALLAYAFALAGNQDKRKEVLKSLNEEAVKKDNSVHWERPQKPKAPVGHFYEPQAPSAEVEMTSYVLLAYLTAQPAPTSEDLTSATNIVKWITKQQNAQGGFSSTQDTVVALHALSKYGAATFTRTGKAAQVTIQSSGTFSSKFQVDNNNRLLLQQVSLPELPGEYSMKVTGEGCVYLQTSLKYNILPEKEEFPFALGVQTLPQTCDEPKAHTSFQISLSVSYTGSRSASNMAIVDVKMVSGFIPLKPTVKMLERSNHVSRTEVSSNHVLIYLDKVSNQTLSLFFTVLQDVPVRDLKPAIVKVYDYYETDEFAIAEYNAPCSKDLGNADYKDDDDKGASHHHHHH

Protease Inhibition (% of WT) [1]: 100 % of WT
Protease Inhibition (% of WT) [2]: 225 % of WT
Protease Inhibition (% of WT) [4]: 400 % of WT
Protease Inhibition (% of WT) [5]: 20 % of WT
B3: Variant A2M, bait region SEQ ID NO 128 (other)
chain: SVSGKPQYMVLVPSLLHTETTEKGCVLLSYLNETVTVSASLESVRGNRSLFTDLEAENDVLHCVAFAVPKSSSNEEVMFLTVQVKGPTQEFKKRTTVMVKNEDSLVFVQTDKSIYKPGQTVKFRVVSMDENFHPLNELIPLVYIQDPKGNRIAQWQSFQLEGGLKQFSFPLSSEPFQGSYKVVVQKKSGGRTEHPFTVEEFVLPKFEVQVTVPKIITILEEEMNVSVCGLYTYGKPVPGHVTVSICRKYSDASDCHGEDSQAFCEKFSGQLNSHGCFYQQVKTKVFQLKRKEYEMKLHTEAQIQEEGTVVELTGRQSSEITRTITKLSFVKVDSHFRQGIPFFGQVRLVDGKGVPIPNKVIFIRGNEANYYSNATTDEHGLVQFSINTTNVMGTSLTVRVNYKDRSPCYGYQWVSEEHEEAHHTAYLVFSPSKSFVHLEPMSHELPCGHTQTVQAHYILNGGTLLGLKKLSFYYLIMAKGGIVRTGTHGLLVKQEDMKGHFSISIPVKSDIAPVARLLIYAVLPTGDVIGDSAKYDVENCLANKVDLSFSPSQSLPASHAHLRVTAAPQSVCALRAVDQSVLLMKPDAELSASSVYNLLPEKDLTGFPGPLNDQDDEDCINRHNVYINGITYTPVSSTNEKDMYSFLEDMGLKAFTNSKIRKPKMCPQLEQYEMHGPSELEGRGSEAIPMSIPTKEEEGLGSIPENFFGVVEEPHTKLRKYFPETWIWDLVVVNSAGVAEVGVTVPDTITEWKAGAFCLSEDAGLGISSTASLRAFQPFFVELTMPYSVIRGEAFTLKATVLNYLPKCIRVSVQLEASPAFLAVPVEKEQAPHCICANGRQTVSWAVTPKSLGNVNFTVSAEALESQELCGTEVPSVPEHGRKDTVIKPLLVEPEGLEKETTFNSLLCPSGGEVSEELSLKLPPNVVEESARASVSVLGDILGSAMQNTQNLLQMPYGCGEQNMVLFAPNIYVLDYLNETQQLTPEIKSKAIGYLNTGYQRQLNYKHYDGSYSTFGERYGRNQGNTWLTAFVLKTFAQARAYIFIDEAHITQALIWLSQRQKDNGCFRSSGSLLNNAIKGGVEDEVTLSAYITIALLEIPLTVTHPVVRNALFCLESAWKTAQEGDHGSHVYTKALLAYAFALAGNQDKRKEVLKSLNEEAVKKDNSVHWERPQKPKAPVGHFYEPQAPSAEVEMTSYVLLAYLTAQPAPTSEDLTSATNIVKWITKQQNAQGGFSSTQDTVVALHALSKYGAATFTRTGKAAQVTIQSSGTFSSKFQVDNNNRLLLQQVSLPELPGEYSMKVTGEGCVYLQTSLKYNILPEKEEFPFALGVQTLPQTCDEPKAHTSFQISLSVSYTGSRSASNMAIVDVKMVSGFIPLKPTVKMLERSNHVSRTEVSSNHVLIYLDKVSNQTLSLFFTVLQDVPVRDLKPAIVKVYDYYETDEFAIAEYNAPCSKDLGNADYKDDDDKGASHHHHHH
